Here are results for 3 molecules from patent US20260219282A1.

What is called IC50 is the concentration that gives 50% inhibition. A low value points to higher potency.

For data set [1], the target named is synthetic peptide mimicking the type IV collagen alpha-3 chain, undigested.
Data set [2] addresses synthetic peptide mimicking the type IV collagen alpha-4 chain, undigested.
The target in data set [3] is monoclonal antibody raised against the C4A4-HNE target sequence. The data set is described as follows: competitive ELISA: standard peptide against the biotinylated peptide on a streptavidin plate, HRP-conjugated antibody; mean of the standard curves. In general terms: ELISA stands for enzyme-linked immunosorbent assay.
The target in data set [4] is monoclonal antibody raised against the C4A3-HNE target sequence. Described as above.

B1: active neutrophil elastase purified from human cells (protein)
chain: IVGGRRARPHAWPFMVSLQLRGGHFCGATLIAPNFVMSAAHCVANVNVRAVRVVLGAHNLSRREPTRQVFAVQRIFENGYDPVNLLNDIVILQLNGSATINANVQVAQLPAQGRRLGNGVQCLAMGWGLLGRNRGIASVLQELNVTVVTSLCRRSNVCTLVRGRQAGVCFGDSGSPLVCNGLIHGIASFVRGGCASGLYPDAFAPVAQFVNWIDSIIQ
For B1, in data set [1], the “release of the neo-epitope after 4 hours of incubation with active HNE, detected by the C4A3-HNE ELISA” value is on record as “HNE was able to generate both neo-epitopes”. Also, the “release of the neo-epitope after 4 hours of incubation with active HNE, detected by the C4A4-HNE ELISA” value in data set [2] is listed as “HNE was able to generate both neo-epitopes”. In data set [3], TYPGRHGPPG [C4A4-HNE standard/selection peptide …] came in with a half-maximal inhibitory concentration (IC50) of 0.0336 µg/mL.

For the molecule EGTRPGPPGP [C4A3-HNE standard/selection peptide …], in data set [4], the IC50 turned out to be 0.0731 µg/mL.
